From the supplement of paper PMC7125110
± gives the standard error. For some of these results: Fewer inactive variants are shown than the library holds.

B1: glmS ribozyme (parent)
chain: AUAAAAGCGCCAGAACUACAGAAAUGUAGUUGACGAGGAGGAGGUUUAUCGAAUUUUCGGCGGAUGCCUCCAAA

Legend:
Conditions in all cases: with glucosamine-6-phosphate
glucosamine-6-phosphate [1] = variants of: B1; assay: kcat; higher = faster cleavage; RNA array
Procedure, shortened: (§1)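 Barcoded ribozyme variants, transcribed in situ by E. coli RNA polymerase on sequenced MiSeq chips, were followed via a hybridised Cy3 probe at 37 °C. Glucosamine-6-phosphate ranged from 40 μM to 10 mM in HEPES/KCl/Mg(OAc)2 buffer. kobs came from decay fits to per-tile medians, and kcat and KM from weighted Michaelis–Menten fits.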

glucosamine-6-phosphate [2] = variants of: B1; assay: KM; higher = weaker cofactor use; RNA array
Procedure, shortened: as §1

glucosamine-6-phosphate [3] = variants of: B1; assay: self-cleavage kobs at 40 uM GlcN6P; higher = faster cleavage; RNA array
Procedure, shortened: as §1

glucosamine-6-phosphate [4] = variants of: B1; assay: self-cleavage kobs at 160 uM GlcN6P; higher = faster cleavage; RNA array
Procedure, shortened: as §1

glucosamine-6-phosphate [5] = variants of: B1; assay: self-cleavage kobs at 640 uM GlcN6P; higher = faster cleavage; RNA array
Procedure, shortened: as §1

glucosamine-6-phosphate [6] = variants of: B1; assay: self-cleavage kobs at 2500 uM GlcN6P; higher = faster cleavage; RNA array
Procedure, shortened: as §1

glucosamine-6-phosphate [7] = variants of: B1; assay: self-cleavage kobs at 10000 uM GlcN6P; higher = faster cleavage; RNA array
Procedure, shortened: as §1

Variant	kcat (glucosamine-6-phosphate [1])	KM (glucosamine-6-phosphate [2])	self-cleavage kobs at 40 uM GlcN6P (glucosamine-6-phosphate [3])	self-cleavage kobs at 160 uM GlcN6P (glucosamine-6-phosphate [4])	self-cleavage kobs at 640 uM GlcN6P (glucosamine-6-phosphate [5])	self-cleavage kobs at 2500 uM GlcN6P (glucosamine-6-phosphate [6])	self-cleavage kobs at 10000 uM GlcN6P (glucosamine-6-phosphate [7])
A42G A64G	0.024 ± 0.0071 s⁻¹	1370 ± 520 µM	0.000694 ± 0.00014 s⁻¹	0.0024 ± 0.00059 s⁻¹	0.00754 ± 0.0017 s⁻¹	0.0422 ± 0.015 s⁻¹	0.0194 ± 0.0055 s⁻¹
A42G U69C	0.0183 ± 0.0052 s⁻¹	599 ± 250 µM	0.00116 ± 0.00032 s⁻¹	0.00336 ± 0.0014 s⁻¹	0.0132 ± 0.0044 s⁻¹	0.0132 ± 0.0041 s⁻¹	–
G43C C68A	1.06e-05 ± 2.2e-06 s⁻¹	–	< 1e-05 s⁻¹	–	–	–	–
G44C C70U	< 1e-05 s⁻¹	–	< 1e-05 s⁻¹	–	–	–	–
G44U C70U	3.72e-05 ± 5.6e-06 s⁻¹	–	< 1e-05 s⁻¹	< 1e-05 s⁻¹	–	3.43e-05 ± 1.1e-05 s⁻¹	3.29e-05 ± 6.6e-06 s⁻¹
A42C U55G	< 1e-05 s⁻¹	–	< 1e-05 s⁻¹	–	–	–	–
U45C C67U	0.00406 ± 0.00066 s⁻¹	2250 ± 580 µM	8.28e-05 ± 9.7e-06 s⁻¹	0.000146 ± 5.8e-05 s⁻¹	0.000935 ± 0.00014 s⁻¹	0.00203 ± 0.00032 s⁻¹	0.00337 ± 0.00031 s⁻¹
G43U U65A	4.13e-05 ± 2e-06 s⁻¹	5670 ± 730 µM	–	< 1e-05 s⁻¹	< 1e-05 s⁻¹	–	2.64e-05 ± 1.1e-05 s⁻¹
A42U U65G C68A	2.17e-05 ± 1.1e-05 s⁻¹	–	–	< 1e-05 s⁻¹	–	–	–
G41C U54G	0.000435 ± 5.6e-05 s⁻¹	1610 ± 450 µM	–	–	0.000123 ± 2.4e-05 s⁻¹	0.000354 ± 8.9e-05 s⁻¹	0.000363 ± 4.8e-05 s⁻¹
U45G C68G	0.000114 ± 1.6e-05 s⁻¹	2980 ± 1100 µM	–	–	2.89e-05 ± 1.3e-05 s⁻¹	4.55e-05 ± 1.3e-05 s⁻¹	8.96e-05 ± 1.3e-05 s⁻¹
U45G C68U	0.00118 ± 0.00032 s⁻¹	5190 ± 2400 µM	–	5.23e-05 ± 1.3e-05 s⁻¹	0.000145 ± 2.5e-05 s⁻¹	0.000287 ± 5.6e-05 s⁻¹	0.000826 ± 8.4e-05 s⁻¹
A42U A53G	0.000266 ± 4.7e-05 s⁻¹	2160 ± 870 µM	–	–	4.83e-05 ± 1.2e-05 s⁻¹	0.000175 ± 2.1e-05 s⁻¹	0.000206 ± 2.4e-05 s⁻¹
A42U A53U	0.000105 ± 1.1e-05 s⁻¹	–	–	–	–	8.5e-05 ± 1.5e-05 s⁻¹	9.14e-05 ± 8.2e-06 s⁻¹
A42U A53C	0.000148 ± 2.3e-05 s⁻¹	3050 ± 1500 µM	–	–	–	7.29e-05 ± 2e-05 s⁻¹	0.000113 ± 1.6e-05 s⁻¹
A42G U57A	0.000299 ± 4.6e-05 s⁻¹	–	< 1e-05 s⁻¹	–	0.000118 ± 3.7e-05 s⁻¹	0.000351 ± 0.00012 s⁻¹	0.000266 ± 4.4e-05 s⁻¹

Variant	kcat (glucosamine-6-phosphate [1])	KM (glucosamine-6-phosphate [2])	self-cleavage kobs at 40 uM GlcN6P (glucosamine-6-phosphate [3])	self-cleavage kobs at 160 uM GlcN6P (glucosamine-6-phosphate [4])	self-cleavage kobs at 640 uM GlcN6P (glucosamine-6-phosphate [5])	self-cleavage kobs at 2500 uM GlcN6P (glucosamine-6-phosphate [6])	self-cleavage kobs at 10000 uM GlcN6P (glucosamine-6-phosphate [7])
G43U C67G	0.00171 ± 0.00015 s⁻¹	1020 ± 150 µM	7.18e-05 ± 1e-05 s⁻¹	0.00022 ± 6e-05 s⁻¹	0.000597 ± 8.6e-05 s⁻¹	0.00117 ± 0.0002 s⁻¹	0.00166 ± 0.00022 s⁻¹
A42G A53U	0.0339 ± 0.012 s⁻¹	2240 ± 990 µM	0.000764 ± 0.00011 s⁻¹	0.00186 ± 0.00035 s⁻¹	0.0076 ± 0.0013 s⁻¹	0.0159 ± 0.0028 s⁻¹	0.0373 ± 0.009 s⁻¹
U46A U69C	0.00197 ± 0.00058 s⁻¹	1590 ± 770 µM	9.53e-05 ± 1.9e-05 s⁻¹	0.000133 ± 2.7e-05 s⁻¹	0.00073 ± 0.00012 s⁻¹	0.00122 ± 0.00015 s⁻¹	0.00162 ± 0.00027 s⁻¹
G41U U55A	0.000121 ± 2e-05 s⁻¹	–	–	5.55e-05 ± 1.3e-05 s⁻¹	0.000132 ± 2e-05 s⁻¹	0.000105 ± 3.7e-05 s⁻¹	0.000105 ± 1.7e-05 s⁻¹
G43C U45G	0.00237 ± 0.00082 s⁻¹	–	8.35e-05 ± 1.2e-05 s⁻¹	0.000135 ± 2.3e-05 s⁻¹	0.000694 ± 0.00012 s⁻¹	0.00109 ± 0.00024 s⁻¹	0.00211 ± 0.00027 s⁻¹
A42G C71U	0.0155 ± 0.0039 s⁻¹	732 ± 250 µM	0.000864 ± 0.0001 s⁻¹	0.00294 ± 0.00058 s⁻¹	0.0053 ± 0.0011 s⁻¹	0.0147 ± 0.0047 s⁻¹	0.0178 ± 0.0034 s⁻¹
U45A U46C	0.0497 ± 0.021 s⁻¹	3030 ± 1500 µM	0.000726 ± 0.00015 s⁻¹	0.00197 ± 0.00065 s⁻¹	–	0.0334 ± 0.017 s⁻¹	0.0365 ± 0.012 s⁻¹
U46C A48C	0.000204 ± 4.7e-05 s⁻¹	–	–	–	–	8.54e-05 ± 2.8e-05 s⁻¹	0.000136 ± 2.8e-05 s⁻¹
U45A G66U	0.00194 ± 0.00019 s⁻¹	2090 ± 330 µM	4.15e-05 ± 1.3e-05 s⁻¹	0.000117 ± 3.4e-05 s⁻¹	0.000508 ± 0.0001 s⁻¹	0.00104 ± 0.00022 s⁻¹	0.0016 ± 0.00026 s⁻¹
A42G U49A	1.03e-05 ± 2.5e-06 s⁻¹	–	–	–	–	–	–
A42G U49G	0.00144 ± 0.00033 s⁻¹	3190 ± 1100 µM	5.36e-05 ± 2.3e-05 s⁻¹	5.71e-05 ± 1.4e-05 s⁻¹	0.000275 ± 4.4e-05 s⁻¹	0.000609 ± 9.7e-05 s⁻¹	0.0011 ± 0.00017 s⁻¹
U45G U56A	0.00335 ± 0.00043 s⁻¹	1720 ± 280 µM	7.59e-05 ± 1.8e-05 s⁻¹	0.000299 ± 6.2e-05 s⁻¹	0.000848 ± 0.00019 s⁻¹	0.00206 ± 0.00051 s⁻¹	–
G41U A52G	0.000128 ± 2e-05 s⁻¹	1140 ± 560 µM	–	–	3.83e-05 ± 8.7e-06 s⁻¹	0.000113 ± 1.3e-05 s⁻¹	0.000107 ± 1.1e-05 s⁻¹
G44U C68U	2.53e-05 ± 4.3e-07 s⁻¹	915 ± 100 µM	< 1e-05 s⁻¹	–	–	–	2.31e-05 ± 7.7e-06 s⁻¹
G44U U56G	0.00018 ± 3.5e-05 s⁻¹	3010 ± 1100 µM	–	–	3.67e-05 ± 1.1e-05 s⁻¹	6.96e-05 ± 1.9e-05 s⁻¹	0.00015 ± 3.7e-05 s⁻¹
